Experimental data taken from the supplement of paper PMC10567573.
± gives the standard deviation.

Test: protein stability index of a GFP-peptide fusion (GPS, HEK-293T) (PSI 1-6); higher = more stable
Settings: c terminus: a fixed tail appended
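Note: 24-mer peptide tiles fused after GFP, lentivirally expressed, FACS-sorted into six equal bins by GFP/DsRed ratio, decoded by Illumina sequencing, PSI is the read-weighted mean bin number.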

Sequence: CVDVVFYNPDLKKVVEAHKIVLCA [RHOBTB3]
- protein stability index (treatment: DMSO): 3.01 ± 1.1
- protein stability index (treatment: MLN4924 1 uM, 8 h): 2.74 ± 0.81

Sequence: GAGDWREKEAKDLTELVQRRITYL [FUT8]
- protein stability index (treatment: DMSO): 3.61 ± 0.27
- protein stability index (treatment: MLN4924 1 uM, 8 h): 3.31 ± 0.3

Sequence: LEFRKSMYEEEINETRRKHETRLV [LMNB1]
- protein stability index (treatment: DMSO): 4.02 ± 0.21
- protein stability index (treatment: MLN4924 1 uM, 8 h): 4.06 ± 0.25

Sequence: SQEEAQGLPSSELDAVENQLKWAS [ZNF24]
- protein stability index (treatment: DMSO): 5.32 ± 0.2
- protein stability index (treatment: MLN4924 1 uM, 8 h): 5.08 ± 0.38

Sequence: KEDQAWDGASQDCPPLPAGVSFHI [FBXO34]
- protein stability index (treatment: DMSO): 3.58 ± 0.33
- protein stability index (treatment: MLN4924 1 uM, 8 h): 3.46 ± 0.31

Sequence: APAGASYNPSFEDHQTLLSAAHEV [NOP53]
- protein stability index (treatment: DMSO): 4.73 ± 0.14
- protein stability index (treatment: MLN4924 1 uM, 8 h): 4.71 ± 0.14

Sequence: TKKHIPYREHKSLTGTARYMSINT [CSNK1G1]
- protein stability index (treatment: DMSO): 2.51 ± 0.15
- protein stability index (treatment: MLN4924 1 uM, 8 h): 2.65 ± 0.23

Sequence: TVQEAATSRRARASKKTAQPWVEV [MFSD9]
- protein stability index (treatment: DMSO): 3.22 ± 0.14
- protein stability index (treatment: MLN4924 1 uM, 8 h): 3.1 ± 0.25

Sequence: VDGVWTAQRPGITHGVGLVLRVEQ [SCNN1D]
- protein stability index (treatment: DMSO): 2.21 ± 0.35
- protein stability index (treatment: MLN4924 1 uM, 8 h): 2.44 ± 0.24

Sequence: LLGRERDRVQVERDGLAEDLAALK [PRPH]
- protein stability index (treatment: DMSO): 4.2 ± 0.26
- protein stability index (treatment: MLN4924 1 uM, 8 h): 4.37 ± 0.18

Sequence: AAAPVAEVPTAAGALTPTPAPTTT [CLPTM1]
- protein stability index (treatment: DMSO): 5.3 ± 0.34
- protein stability index (treatment: MLN4924 1 uM, 8 h): 5.25 ± 0.097

Sequence: CDDSFTPQEKLWQQLRRGRYVEFN [CPOX]
- protein stability index (treatment: DMSO): 3.08 ± 0.14
- protein stability index (treatment: MLN4924 1 uM, 8 h): 2.89 ± 0.3

Sequence: FQREALENSHTNTEVLRNMGFAAK [CHMP4C]
- protein stability index (treatment: DMSO): 3.59 ± 0.21
- protein stability index (treatment: MLN4924 1 uM, 8 h): 4.08 ± 0.28

Sequence: TSALFWEQHDLVYGDWTSGENSDG [CLPTM1]
- protein stability index (treatment: DMSO): 4.17 ± 0.18
- protein stability index (treatment: MLN4924 1 uM, 8 h): 4.34 ± 0.41

Sequence: NGITQGDKLRALKSQRQPRTSPSC [CDC14A]
- protein stability index (treatment: DMSO): 4.16 ± 0.19
- protein stability index (treatment: MLN4924 1 uM, 8 h): 4.14 ± 0.071

Sequence: LPREEEIVFPEKLNGSVLPGSGAP [ADAMTS4]
- protein stability index (treatment: DMSO): 4.49 ± 0.45
- protein stability index (treatment: MLN4924 1 uM, 8 h): 4.63 ± 0.46

Sequence: PNSTFPIDKSMTVVLTFITPMLNP [OR4A15]
- protein stability index (treatment: DMSO): 2.95 ± 0.38
- protein stability index (treatment: MLN4924 1 uM, 8 h): 2.97 ± 0.38

Sequence: YKSWLKNLAKEQLSRENIQSSLLE [PPEF2]
- protein stability index (treatment: DMSO): 2.72 ± 0.24
- protein stability index (treatment: MLN4924 1 uM, 8 h): 2.86 ± 0.13

Sequence: KEEEEKDHNEAMKPEEPPQNLLRE [PCMTD1]
- protein stability index (treatment: DMSO): 5.39 ± 0.77
- protein stability index (treatment: MLN4924 1 uM, 8 h): 5.88 ± 0.09

Sequence: SGTGKKEKEKKNRKGKDKENGSVS [EIF5]
- protein stability index (treatment: DMSO): 5.36 ± 0.24
- protein stability index (treatment: MLN4924 1 uM, 8 h): 5.31 ± 0.21

Sequence: VQAWPFTCLPLGVLMKGQHLHLET [PRAME]
- protein stability index (treatment: DMSO): 2.58 ± 0.3
- protein stability index (treatment: MLN4924 1 uM, 8 h): 2.82 ± 0.39

Sequence: LSRHDKAVQRFCLIGSLSKHESEY [NETO1]
- protein stability index (treatment: DMSO): 2.72 ± 0.12
- protein stability index (treatment: MLN4924 1 uM, 8 h): 2.69 ± 0.072

Sequence: RCVRVFLEHGADPTVKDLIGGFTA [ASB7]
- protein stability index (treatment: DMSO): 2.4 ± 0.78
- protein stability index (treatment: MLN4924 1 uM, 8 h): 2.04 ± 0.41

Sequence: SVTGLDPEARYLFLLDVIPVDGAR [TBX6]
- protein stability index (treatment: DMSO): 2.15 ± 0.47
- protein stability index (treatment: MLN4924 1 uM, 8 h): 2 ± 0.13

Sequence: FDPIVLLPCDLPKVVSRAENLSVP [LPCAT4]
- protein stability index (treatment: DMSO): 2.8 ± 0.2
- protein stability index (treatment: MLN4924 1 uM, 8 h): 2.87 ± 0.3

Sequence: AGALAQGGGPSATEWACILRRKTP [C6orf223]
- protein stability index (treatment: DMSO): 3.56 ± 0.17
- protein stability index (treatment: MLN4924 1 uM, 8 h): 3.75 ± 0.29

Sequence: LGLGTRESHSCPQQVPMPPGQEAQ [NEK8]
- protein stability index (treatment: DMSO): 4.98 ± 0.19
- protein stability index (treatment: MLN4924 1 uM, 8 h): 4.87 ± 0.097

Sequence: YQLGEEALLKFREDEGFVREEEDR [KCNA4]
- protein stability index (treatment: DMSO): 4.51 ± 0.22
- protein stability index (treatment: MLN4924 1 uM, 8 h): 4.85 ± 0.31

Sequence: RYLLCELVSDDPRCRLSLDDRVLS [POP5]
- protein stability index (treatment: DMSO): 2.31 ± 0.25
- protein stability index (treatment: MLN4924 1 uM, 8 h): 2.36 ± 0.27

Sequence: EVYYDGQWGTVCDDDFSIHAAHVV [LOXL2]
- protein stability index (treatment: DMSO): 2.62 ± 0.31
- protein stability index (treatment: MLN4924 1 uM, 8 h): 2.6 ± 0.37

Sequence: MGGCPVRKRRRNGSKEGNHHSTQP [FAM104B]
- protein stability index (treatment: DMSO): 4.72 ± 0.17
- protein stability index (treatment: MLN4924 1 uM, 8 h): 4.86 ± 0.24

Sequence: VLSSWSRAFVSIQEEMAEDPLTYK [RHOBTB2]
- protein stability index (treatment: DMSO): 2.89 ± 0.14
- protein stability index (treatment: MLN4924 1 uM, 8 h): 3.17 ± 0.6

Sequence: GGEMSPQVETSIEGTIPFSKPVKV [INTS4]
- protein stability index (treatment: DMSO): 4.77 ± 0.2
- protein stability index (treatment: MLN4924 1 uM, 8 h): 4.76 ± 0.17

Sequence: TNFEGPPRLKEDQPWMVIEGIRQT [FSD1]
- protein stability index (treatment: DMSO): 3.5 ± 0.082
- protein stability index (treatment: MLN4924 1 uM, 8 h): 3.75 ± 0.33

Sequence: AGPGAAEPLPVERDPAAGAAPFRF [ZNF511]
- protein stability index (treatment: DMSO): 4.38 ± 0.17
- protein stability index (treatment: MLN4924 1 uM, 8 h): 4.64 ± 0.29
